Test results: US20220143148A1, “COMPOSITIONS AND METHODS FOR MODULATING CGRP SIGNALING TO REGULATE INTESTINAL INNATE LYMPHOID CELLS” (The Broad Institute, Inc., priority 2019, published 2022)

System: small intestinal immune cells
Experiment: Droplet-based scRNA-seq of small intestinal immune cells (LP and PP), OVA vs PBS, clustering and differential expression
Assay type: in vivo, mouse
Settings: PP; cluster ID 8
From the text: To comprehensively characterize small intestinal immune cells, Applicants generated scRNA-Seq profiles for 58,067 immune cells collected from lamina propria (LP) and Peyer's patch (PP) regions at steady state and after induction of a type 2 inflammatory reaction to ovalbumin (OVA) (Brandt et al., 2003) (FIGS. 1A and 8A). To ensure sufficient representation of rare cells, Applicants combined a normalization strategy—removing by flow sorting either a portion of IgD+ naïve B cells, which are the most abundant cell type in PPs, or all CD19+ and CD3+ T cells (FIG. 8B, Methods)—with profiling of a sufficiently large number of cells number (P>0.99 to recover at least 15 cells from each cluster, Methods) by massively parallel scRNA-seq (Haber et al., 2017) (Methods). Applicants obtained 36,797 and 21,270 high quality cells passing initial filtering (Methods) from PP and LP regions, respectively.
Overall, Applicants annotated 27 cell subsets across the two compartments, spanning T cells, B cells, ILCs, dendritic cells (DCs), myeloid cells and stromal cells, in frequencies ranging from 0.07% to 14%. Briefly, Applicants first partitioned the cells from the PP regions by unsupervised clustering (Methods) into 46 clusters, retained the 97% of cells that were robustly assigned cell identities in each cluster (Methods), assigned the cells from the LP regions to the 46 clusters using a classifier (Methods), and visualized the data with scvis (Ding et al., 2018), a deep generative model-based method (FIGS. 1B and 8C, Methods). Next, Applicants identified genes that were differentially expressed between the cells in each cluster and the remaining cells (Table 1, Methods), as well as between pairs of clusters (Table 2), to elucidate identities of similar cell types/states. Applicants excluded from downstream analysis clusters mostly consisting of contaminants from epithelium, likely doublets, or cells with a small number of Unique Molecular Identifiers (UMIs) (FIGS. 1C and 8D), or lacking distinct markers (Methods). Altogether, Applicants retained 27 clusters spanning 85% of the cells and each associated with distinct marker genes (FIG. 8E, Methods).
To induce allergic reaction to OVA, 6 to 7 weeks old mice were sensitized twice, two weeks apart, with 50 μg of OVA plus 1 mg of aluminum potassium sulfate adjuvant via intraperitoneal injection. Two weeks later, mice were orally administered with 50 mg of OVA on every other day for a total of five times. 1 μg of α-CGRP peptide was administered simultaneously when indicated. Mice were deprived of food for 3-4 hours in cages with wood chip bedding for limiting antigen degradation in the stomach before each intragastric challenge.
Isolation of cells from Peyer's patches (PPs). Peyer's patches (PPs) were carefully dissected from the small intestine under a stereo microscope using a fine scissor, pierced once with a fine forcep. Tissues were digested in freshly made digestion buffer (RPMI-1640 containing 100 μg/ml Liberase™ and 50 μg/ml DNase I at 37° C. on a roto-mixer. After 15 min, tissues were very gently mixed using a 1 ml pipette. The supernatant was collected and added to ice-cold MACS buffer (pH 7.4; PBS plus 2% FCS and 2 mM EDTA). Pre-warmed (37° C.) fresh digestion buffer was added to the remaining tissues. After rotation at 37° C. for 15 min, the mixture was vigorously mixed using a 1 ml pipette for 1 min. Supernatants from the two steps were combined and passed through 70 μm filters and stained for FACS (below).
Isolation of cells from the lamina propria (LP). The small intestines were opened longitudinally and washed in ice-cold PBS. For scRNA-seq, roughly 0.5 cm of fragments from each of the distal, middle and proximal regions without visible PPs were collected. Epithelial cells were dissociated by tissue rotation in pre-warmed (37° C.) PBS containing 10 mM EDTA at 37° C. for 15 min, followed by additional incubation on ice for 15 min. Tissues were then shaken vigorously. […]

B1: OVA (protein, UniProt P01012 2-386, looked up)
Ovalbumin: GSIGAASMEFCFDVFKELKVHHANENIFYCPIAIMSALAMVYLGAKDSTRTQINKVVRFDKLPGFGDSIEAQCGTSVNVHSSLRDILNQITKPNDVYSFSLASRLYAEERYPILPEYLQCVKELYRGGLEPINFQTAADQARELINSWVESQTNGIIRNVLQPSSVDSQTAMVLVNAIVFKGLWEKAFKDEDTQAMPFRVTEQESKPVQMMYQIGLFRVASMASEKMKILELPFASGTMSMLVLLPDEVSGLEQLESIINFEKLTEWTSSNVMEERKIKVYLPRMKMEEKYNLTSVLMAMGITDVFSSSANLSGISSAESLKISQAVHAAHAEINEAGREVVGSAEAGVDAASVSEEFRADHPFLFCIKHIATNAVLFFGRCVSP
  Fosl2 percentage of expressing cells in OVA-treated group: 0.378
  Ftl1 percentage of expressing cells in OVA-treated group: 0.963
  Gadd45b percentage of expressing cells in OVA-treated group: 0.17
  Gimap1 percentage of expressing cells in OVA-treated group: 0.776
  Gimap6 percentage of expressing cells in OVA-treated group: 0.815
  Gimap9 percentage of expressing cells in OVA-treated group: 0.511
  Gnai2 percentage of expressing cells in OVA-treated group: 0.661
  Gramd1a percentage of expressing cells in OVA-treated group: 0.336
  Gramd3 percentage of expressing cells in OVA-treated group: 0.227
  Gzma percentage of expressing cells in OVA-treated group: 0.764
  H2-K1 percentage of expressing cells in OVA-treated group: 0.978
  H3f3b percentage of expressing cells in OVA-treated group: 0.993
  Hcst percentage of expressing cells in OVA-treated group: 0.898
  Hist1h1c percentage of expressing cells in OVA-treated group: 0.348
  Hist1h1e percentage of expressing cells in OVA-treated group: 0.176
  Icam1 percentage of expressing cells in OVA-treated group: 0.175
  Id2 percentage of expressing cells in OVA-treated group: 0.684
  Ier2 percentage of expressing cells in OVA-treated group: 0.781
  Ier5l percentage of expressing cells in OVA-treated group: 0.057
  Ifi203 percentage of expressing cells in OVA-treated group: 0.547
  Ifrd1 percentage of expressing cells in OVA-treated group: 0.276
  Igha percentage of expressing cells in OVA-treated group: 0.488
  Igkc percentage of expressing cells in OVA-treated group: 0.677
  Ikzf2 percentage of expressing cells in OVA-treated group: 0.216
  Il2rg percentage of expressing cells in OVA-treated group: 0.681
  Il16 percentage of expressing cells in OVA-treated group: 0.336
  Jun percentage of expressing cells in OVA-treated group: 0.453
  Jund percentage of expressing cells in OVA-treated group: 0.846
  Kdm2b percentage of expressing cells in OVA-treated group: 0.158
  Kdm6b percentage of expressing cells in OVA-treated group: 0.274
  Klf4 percentage of expressing cells in OVA-treated group: 0.122
  Klf6 percentage of expressing cells in OVA-treated group: 0.589
  Klrb1c percentage of expressing cells in OVA-treated group: 0.735
  Klrb1f percentage of expressing cells in OVA-treated group: 0.56
  Klrc1 percentage of expressing cells in OVA-treated group: 0.608
  Klrc2 percentage of expressing cells in OVA-treated group: 0.505
  Klrd1 percentage of expressing cells in OVA-treated group: 0.939
  Klre1 percentage of expressing cells in OVA-treated group: 0.744
  Klrk1 percentage of expressing cells in OVA-treated group: 0.873
  Lax1 percentage of expressing cells in OVA-treated group: 0.286
  Litaf percentage of expressing cells in OVA-treated group: 0.339
  Lmna percentage of expressing cells in OVA-treated group: 0.089
  Maff percentage of expressing cells in OVA-treated group: 0.251
  Mcpt1 percentage of expressing cells in OVA-treated group: 0.209
  Mir142hg percentage of expressing cells in OVA-treated group: 0.161
  Ms4a4b percentage of expressing cells in OVA-treated group: 0.953
  Ms4a6b percentage of expressing cells in OVA-treated group: 0.419
  Myl6 percentage of expressing cells in OVA-treated group: 0.987
  Nabp1 percentage of expressing cells in OVA-treated group: 0.702
  Ncr1 percentage of expressing cells in OVA-treated group: 0.964
  Ndel1 percentage of expressing cells in OVA-treated group: 0.216
  Neat1 percentage of expressing cells in OVA-treated group: 0.503
  Neurl3 percentage of expressing cells in OVA-treated group: 0.388
  Nfil3 percentage of expressing cells in OVA-treated group: 0.365
  Nfkb1 percentage of expressing cells in OVA-treated group: 0.374
  Nfkbia percentage of expressing cells in OVA-treated group: 0.614
  Nfkbid percentage of expressing cells in OVA-treated group: 0.146
  Nfkbie percentage of expressing cells in OVA-treated group: 0.111
  Nfkbiz percentage of expressing cells in OVA-treated group: 0.358
  Ninj1 percentage of expressing cells in OVA-treated group: 0.125
  Nkg7 percentage of expressing cells in OVA-treated group: 0.985
  Nr4a1 percentage of expressing cells in OVA-treated group: 0.561
  Nr4a2 percentage of expressing cells in OVA-treated group: 0.348
  Nr4a3 percentage of expressing cells in OVA-treated group: 0.157
  Odc1 percentage of expressing cells in OVA-treated group: 0.202
  P2ry10 percentage of expressing cells in OVA-treated group: 0.374
  Phlda1 percentage of expressing cells in OVA-treated group: 0.134
  Pim1 percentage of expressing cells in OVA-treated group: 0.677
  Pnrc1 percentage of expressing cells in OVA-treated group: 0.769
  Ppp1r15a percentage of expressing cells in OVA-treated group: 0.406
  Ppp1r16b percentage of expressing cells in OVA-treated group: 0.206
  Ppp3cc percentage of expressing cells in OVA-treated group: 0.268
  Prr7 percentage of expressing cells in OVA-treated group: 0.093
  Ptp4a2 percentage of expressing cells in OVA-treated group: 0.606
  Ptprcap percentage of expressing cells in OVA-treated group: 0.929
